Reference: patent US20080112961A1 (MacroGenics, published 2008)
Residue numbers refer to the chain shown, from its start. Names may count otherwise.

B1: ch4-4-20 F275I, K334N, V348M (antibody)
heavy: ASTKGPSVFPLAPSSKSTSGGTAALGCLVKDYFPEPVTVSWNSGALTSGVHTFPAVLQSSGLYSLSSVVTVPSSSLGTQTYICNVNHKPSNTKVDKKVEPKSCDKTHTCPPCPAPELLGGPSVFLFPPKPKDTLMISRTPEVTCVVVDVSHEDPEVKINWYVDGVEVHNAKTKPREEQYNSTYRVVSVLTVLHQDWLNGKEYKCKVSNKALPAPIENTISKAKGQPREPQMYTLPPSRDELTKNQVSLTCLVKGFYPSDIAVEWESNGQPENNYKTTPPVLDSDGSFFLYSKLTVDKSRWQQGNVFSCSVMHEALHNHYTQKSLSLSPGK
B2: ch4-4-20 F275L, Q362H, N384K, P396L (antibody)
heavy: B1 heavy with I158L, N217K, M231V, Q245H, N267K, P279L
B3: ch4-4-20 K222N, T335N, K370E, A378V, T394M (antibody)
heavy: B1 heavy with K105N, I158F, N217K, T218N, M231V, K253E, A261V, T277M
B4: ch4-4-20 K246N, Q419R, P396L (antibody)
heavy: B1 heavy with K129N, I158F, N217K, M231V, P279L, Q302R
B5: ch4-4-20 K246R, S298N, I377F (antibody)
heavy: B1 heavy with K129R, I158F, S181N, N217K, M231V, I260F
B6: ch4-4-20 K290E, V369A, T393A, P396L (antibody)
heavy: B1 heavy with I158F, K173E, N217K, M231V, V252A, T276A, P279L
B7: ch4-4-20 K290T, N390I, P396L (antibody)
heavy: B1 heavy with I158F, K173T, N217K, M231V, N273I, P279L
B8: ch4-4-20 K326I, S408N, P396L (antibody)
heavy: B1 heavy with I158F, K209I, N217K, M231V, P279L, S291N
B9: ch4-4-20 K326Q, K334E, T359N, T366S (antibody)
heavy: B1 heavy with I158F, K209Q, N217E, M231V, T242N, T249S
B10: ch4-4-20 K334E, T359N, T366S (antibody)
heavy: B1 heavy with I158F, N217E, M231V, T242N, T249S
B11: ch4-4-20 K334E, T359N, T366S, Q386R (antibody)
heavy: B1 heavy with I158F, N217E, M231V, T242N, T249S, Q269R
B12: ch4-4-20 MgFc63 (S298N, K360R, N361D) (antibody)
heavy: B1 heavy with I158F, S181N, N217K, M231V, K243R, N244D
B13: ch4-4-20 Mut 10 (P396L, A330S, K288N) (antibody)
heavy: B1 heavy with I158F, K171N, A213S, N217K, M231V, P279L
notes: also called Mut10(0225); K288N, A330S, P396L
B14: ch4-4-20 N315I, V379M, T394M (antibody)
heavy: B1 heavy with I158F, N198I, N217K, M231V, V262M, T277M
B15: ch4-4-20 P244H, L358M, V379M, N384K, V397M (antibody)
heavy: B1 heavy with P127H, I158F, N217K, M231V, L241M, V262M, N267K, V280M
B16: ch4-4-20 P247L, A330T, S440G (antibody)
heavy: B1 heavy with P130L, I158F, A213T, N217K, M231V, S323G
B17: ch4-4-20 P247L, A431V, S442F (antibody)
heavy: B1 heavy with P130L, I158F, N217K, M231V, A314V, S325F
B18: ch4-4-20 P247L, I253N, K334N (antibody)
heavy: B1 heavy with P130L, I136N, I158F, M231V
B19: ch4-4-20 P247L, W313R, E388G (antibody)
heavy: B1 heavy with P130L, I158F, W196R, N217K, M231V, E271G
B20: ch4-4-20 P343S, P353L, S375I, S383N (antibody)
heavy: B1 heavy with I158F, N217K, P226S, M231V, P236L, S258I, S266N
B21: ch4-4-20 R301H, K340E, D399E (antibody)
heavy: B1 heavy with I158F, R184H, N217K, K223E, M231V, D282E
B22: ch4-4-20 T256S, V305I, K334E, N390S (antibody)
heavy: B1 heavy with T139S, I158F, V188I, N217E, M231V, N273S
B23: ch4-4-20 T335N, K370E, A378V, T394M, S424L (antibody)
heavy: B1 heavy with I158F, N217K, T218N, M231V, K253E, A261V, T277M, S307L
B24: ch4-4-20 V273I, K326E, L328I, P396L (antibody)
heavy: B1 heavy with V156I, I158F, K209E, L211I, N217K, M231V, P279L
B25: ch4-4-20 V282E, V369I, L406F (antibody)
heavy: B1 heavy with I158F, V165E, N217K, M231V, V252I, L289F
B26: ch4-4-20 V397M, T411A, S415N (antibody)
heavy: B1 heavy with I158F, N217K, M231V, V280M, T294A, S298N
B27: ch4-4-20 MgFc66 (A330V, V427M) (antibody)
chain 1: not shown
chain 2: DVVMTQTPLSLPVSLGDQASISCRSSQSLVHSNGNTYLRWYLQKPGQSPKVLIYKVSNRFSGVPDRFSGSGSGTDFTLKISRVEAEDLGVYFCSQSTHVPWTFGGGTKLEIKRTVAAPSVFIFPPSDEQLKSGTASVVCLLNNFYPREAKVQWKVDNALQSGNSQESVTEQDSKDSTYSLSSTLTLSKADYEKHKVYACEVTHQGLSSPVTKSFNRGEC
B28: ch4-4-20 V348M, K334N, F275I, Y202M, K147T (antibody)
chain: B1 heavy with K30T, V85M

Tests used:
[1] = biological target: T1, FcγRIIIA (form not stated) (UniProt P08637 17-208, limits assumed); assay: ELISA
T1 construct: also called FcγRIIIA (ELISA)

[2] = biological target: T2, FcγRIIB (form not stated) (UniProt P31994 43-217, limits assumed); assay: ELISA
T2 construct: also called FcγRIIB (ELISA)
T2 sequence (looked up): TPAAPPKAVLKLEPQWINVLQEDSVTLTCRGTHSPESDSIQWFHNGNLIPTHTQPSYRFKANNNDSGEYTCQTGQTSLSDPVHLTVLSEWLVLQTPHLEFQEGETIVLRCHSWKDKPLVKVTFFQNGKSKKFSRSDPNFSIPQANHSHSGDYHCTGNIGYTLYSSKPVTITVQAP

[3] = biological target: T1, FcγRIIIA (form not stated); assay: ELISA; remark: listed apart in the source
[4] = biological target: T3, FcγRIIB-Fc fusion protein, soluble dimer: extracellular domain of FcγRIIB fused to the hinge-CH2-CH3 domain … (human, UniProt P31994 43-217, limits assumed); assay: BIAcore, ch4-4-20
T3 construct: extracellular domain; also called FcRIIB-Fc; 2bfcagl; not shown: human IgG2 hinge-CH2-CH3
T3 sequence (looked up): T2 sequence (looked up)
Method: (§1) Following this, the unreacted active esters were “capped off” with an injection of 1M Et-NH2. Once a suitable surface was prepared, ch 4-4-20 antibodies carrying the Fc mutations were passed over the surface by one minute injections of a 20 μg/mL solution at a […] flow rate. […] Next, dilution series of the receptor (FcγRIIIA and FcγRIIB-Fc fusion protein) in HBS-P buffer (10 mM HEPES, 150 mM NaCl, 0.005% Surfactant P20, 3 mM EDTA, pH 7.4) were injected onto the surface at 100 μL/min Antibody regeneration between different receptor dilutions was carried out by single 5 second injections of 100 mM NaHCO₃ pH 9.4; 3M NaCl.
(§2) Binding curves for two different concentrations (200 nM and 800 nM for FcγRIIIA and 200 nM and 400 nM for FcγRIIB fusion protein) were aligned and responses adjusted to the same level of captured antibodies, and the reference curves were subtracted from the experimental curves. Association and dissociation phases were fitted separately. Dissociation rate constant was obtained for interval 32-34 sec of the dissociation phase; association phase fit was obtained by a 1:1 Langmuir model and base fit was selected on the basis Rₘₐₓ and chi² criteria.
Secondary Screen of Mutants via BIAcore: Mutants that were selected in the above screens were then analyzed by BIAcore to determine the kinetic parameters for binding FcγRIIIA (158V) and FcγRIIB. The method used was similar to that disclosed in Section 7.1, supra.

[5] = biological target: T3, FcγRIIB-Fc fusion protein, soluble …; assay: BIAcore, Ab on BSA-FITC
Method: as §1, §2

[6] = biological target: T3, FcγRIIB-Fc fusion protein, soluble …; assay: ELISA

T1 sequence (P08637 17-208 F176V limits assumed, form in doubt): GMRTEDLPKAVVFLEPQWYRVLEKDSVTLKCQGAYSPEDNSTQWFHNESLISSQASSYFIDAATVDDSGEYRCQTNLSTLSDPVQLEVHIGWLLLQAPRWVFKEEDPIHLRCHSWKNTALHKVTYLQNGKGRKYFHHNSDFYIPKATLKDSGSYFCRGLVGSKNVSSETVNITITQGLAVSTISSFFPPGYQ

Binder	fold increase vs WT [1]	fold increase vs WT [2]	further results
B1	0.5 x		binding result [2]: binds
B2	2.2 x	3.7 x	
B3	1 x	7 x	
B4	1.1 x	4.8 x	
B5	1 x	5 x	
B6	1.3 x	6.7 x	
B7	2.8 x	6.1 x	
B8	4 x	9.3 x	
B9	1.5 x	5 x	
B10	1.5 x		ELISA binding, fold vs Wt [3]: 1.5 X; binding result [2]: binds
B11	1 x		binding result [2]: binds
B12			Koff WT/Mut [4]: 0.67 ratio
B13			Kd [5]: 41.3 nM; koff [5]: 0.05 s⁻¹; ELISA, OD [6]: 1.2 OD
B14	1 x	9 x	
B15	1.75 x	1.5 x	
B16	0.75 x		fold decrease vs WT [2]: 0.25 x
B17			fold vs WT [1]: 1 x; binding result [2]: binds
B18	3 x	2.5 x	
B19	1.5 x	1 x	
B20	0.5 x	6 x	
B21			fold decrease vs WT [1]: 0.5 x; fold decrease vs WT [2]: 0.25 x
B22	1.5 x		binding result [2]: binds
B23	0.5 x		binding result [2]: binds
B24	1.3 x	10.8 x	
B25	0.5 x	7 x	
B26	0.25 x	5 x	
B27			Koff WT/Mut [4]: 0.62 ratio
B28	0.5 x	0.75 x	
